Measurements from patent US20110110945A1, “Immunoglobulin Fusion Proteins and Methods of Making” (TransTech Pharma, Inc., priority 2007, published 2011).
“Also recorded” adds a separate entry of the source.

Columns and labels:
[1] = Pharmacokinetic profile of TTP-4000 after IV injection; format: in vivo, monkeys; conditions: single IV bolus 5 mg/kg; plasma; once TTP-4000 has saturated its ligands; 2 animals; FIG. 11
Protocol: Following collection, the tubes were placed on wet ice (maximum 30 minutes) until centrifugation under refrigeration (at 2 to 8° C.) at 1500×g for 15 minutes. Each harvested plasma sample was then stored frozen (−70° C.±10° C.) until assayed for RAGE polypeptide using an ELISA at various time-points following the injection, as described in Example 6.
In FIG. 11 each curve represents a different animal under the same experimental conditions.
Initially, 50 uL of the RAGE specific monoclonal antibody 1HB1011 at a concentration of 10 ug/mL in 1×PBS pH 7.3 is coated on plates via overnight incubation. When ready for use, plates are washed three times with 300 uL of 1× Imidazole-Tween wash buffer and blocked with 1% BSA. […] The samples are allowed to incubate at room temperature for one hour. After incubation, the plates are plates are washed three times. A Goat Anti-human IgG1 1 (Sigma A3312) AP conjugate in 1×PBS with 1% BSA is added and allowed to incubate at room temperature for 1 hour. The plates are washed three times. Color was elucidated with paranitrophenylphosphate.

[2] = tested on: S100b/RAGE-induced production of TNF-α in THP-1 cells; test: Inhibition of S100b/RAGE-induced production of TNF-α in THP-1 cells; format: cell-based; conditions: 10 μg protein, FIG. 10
From the text: One embodiment of a use of a RAGE fusion protein of the present invention to modulate expression of the cellular effector TNF-α is shown in FIG. 10. THP-1 myeloid cells may be cultured in RPMI-1640 media supplemented with 10% FBS and induced to secrete TNF-α via stimulation of RAGE with S100b. When such stimulation occurs in the presence of a RAGE fusion protein of the invention, induction of TNF-α by S100b binding to RAGE may be inhibited.
Previous work has shown that the myeloid THP-1 cells may secrete TNF-α in response to RAGE ligands. In this assay, THP-1 cells were cultured in RPMI-1640 media supplemented with 10% FBS using a protocol provided by ATCC. […] The amount of TNF-α secreted by the THP-1 cells was measured 24 hours after the addition of the proteins to the cell culture using a commercially available ELISA kit for TNF-α (R&D Systems, Minneapolis, Minn.).

[3] = tested on: male C57BL/6 mice, cerebral ischemia/reperfusion; test: Animal model of stroke (ischemia and reperfusion, infarct volume); format: in vivo; conditions: mouse stroke model
Protocol: In this model, the middle carotid artery of a mouse is ligated and then reperfused to form an infarct.
In this model, the middle carotid artery of a mouse was ligated for 1 hour followed by 23 hours of reperfusion at which point the mice were sacrificed and the area of the infarct in the brain was assessed.
Mice were injected intraperitoneally, 1 hour after the initiation of ischemia. Mice were subjected to one hour of cerebral ischemia followed by 24 hours of reperfusion. To induce ischemia, each mouse was anesthetized and body temperature was maintained at 36-37° C. by external warming. The left common carotid artery (CCA) was exposed through a midline incision in the neck. […] After the nylon suture had been in place for 1 hour, the animal was re-anesthetized, rectal temperature was recorded and the suture was removed and the incision closed.
Infarct volume was determined by anesthetizing the animals with an intraperitoneal injection of sodium pentobarbital (50 mg/kg) and then removing the brains. […] The infarct area in each section was determined with a computer-assisted image analysis system, consisting of a Power Macintosh computer equipped with a Quick Capture frame grabber card, Hitachi CCD camera mounted on a camera stand. […] The images were captured and the total area of infarct was determined over the sections. […] The results are expressed as the mean±standard deviation (SD). […]

[4] = molecular target: T1, S100b (Homo sapiens, UniProt P04271); test: In vitro ligand binding assay (ELISA), immobilized S100b; conditions: ligand 5 micrograms per well; dilutions of initial fusion protein solution; FIG. 7
T1 sequence (P04271 1-92): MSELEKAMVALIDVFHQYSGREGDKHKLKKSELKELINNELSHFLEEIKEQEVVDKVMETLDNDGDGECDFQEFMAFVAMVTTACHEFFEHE
Protocol: (§1) For example, the fusion protein may be used in a binding assay to identify potential ligands that bind to the non-immunoglobulin protein. In one example embodiment of such a binding assay, a known ligand may coated onto a solid substrate (e.g., Maxisorb plates) at a biologically relevant concentration (e.g., about 5 micrograms per well), where each well contains a total volume of about 100 microliters (μL). The plates may be incubated at 4° C. overnight to allow the ligand to bind to the substrate. Alternatively, shorter incubation periods at higher temperature (e.g., room temperature) may be used. After a period of time to allow for the ligand to bind to the substrate, the assay wells may be aspirated and a blocking buffer (e.g., 1% BSA in 50 mM imidizole buffer, pH 7.2) may be added to block nonspecific binding. […] The fusion protein bound to the immobilized ligand may be detected in a variety of ways. […] The bound complex may be detected by adding a substrate for the secondary antibody complex, e.g., the alkaline phosphatase substrate, para-nitrophenylphosphate (PNPP), and measuring conversion of PNPP to para-nitrophenol (PNP) as an increase in absorbance at 405 nm. […] In the absence of ligand (i.e., coating with only BSA) there was no increase in absorbance. The binding assay of the present invention may be used to quantify ligand binding. […]

[5] = molecular target: T2, amyloid-beta (Amyloid Beta (1-40)) (Homo sapiens, UniProt P05067); test: In vitro ligand binding assay (ELISA), immobilized amyloid-beta; conditions: ligand 5 micrograms per well; dilutions of initial fusion protein solution; FIG. 7
T2 construct: Amyloid Beta (1-40) from Biosource; purchased Biosource
T2 sequence (P05067 672-711 limits assumed): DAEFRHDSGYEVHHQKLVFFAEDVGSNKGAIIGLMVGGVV
Protocol: as §1

B1: TTP-4000: RAGE fusion protein: V and C1 domains of human RAGE (amino acids 1-251) linked to hinge-less CH2 and CH3 of human IgG1; SEQ ID NO: 16/18 (protein)
chain 1: MAAGTAVGAWVLVLSLWGAVVGAQNITARIGEPLVLKCKGAPKKPPQRLEWKLNTGRTEAWKVLSPQGGGPWDSVARVLPNGSLFLPAVGIQDEGIFRCQAMNRNGKETKSNYRVRVYQIPGKPEIVDSASELTAGVPNKVGTCVSEGSYPAGTLSWHLDGKPLVPNEKGVSVKEQTRRHPETGLFTLQSELMVTPARGGDPRPTFSCSFSPGLPRHRALRTAPIQPRVWEPVPLEEVQLVVEPEGGAVAPPSVFLFPPKPKDTLMISRTPEVTCVVVDVSHEDPEVKFNWYVDGVEVHNAKTKPREEQYNSTYRVVSVLTVLHQDWLNGKEYKCKVSNKALPAPIEKTISKAKGQPREPQVYTLPPSRDELTKNQVSLTCLVKGFYPSDIAVEWESNGQPENNYKTTPPVLDSDGSFFLYSKLTVDKSRWQQGNVFSCSVMHEALHNHYTQKSLSLSPGK
chain 2: ENITARIGEPLVLKCKGAPKKPPQRLEWKLNTGRTEAWKVLSPQGGGPWDSVARVLPNGSLFLPAVGIQDEGIFRCQAMNRNGKETKSNYRVRVYQIPGKPEIVDSASELTAGVPNKVGTCVSEGSYPAGTLSWHLDGKPLVPNEKGVSVKEQTRRHPETGLFTLQSELMVTPARGGDPRPTFSCSFSPGLPRHRALRTAPIQPRVWEPVPLEEVQLVVEPEGGAVAPPSVFLFPPKPKDTLMISRTPEVTCVVVDVSHEDPEVKFNWYVDGVEVHNAKTKPREEQYNSTYRVVSVLTVLHQDWLNGKEYKCKVSNKALPAPIEKTISKAKGQPREPQVYTLPPSRDELTKNQVSLTCLVKGFYPSDIAVEWESNGQPENNYKTTPPVLDSDGSFFLYSKLTVDKSRWQQGNVFSCSVMHEALHNHYTQKSLSLSPGK
modifications: synthetic four domain RAGE-Fc IgG fusion protein; synthetic four domain RAGE-Fc IgG fusion protein having signal sequence removed
- terminal half-life [1]: greater than 300 hours
- reduction of S100b induction of TNF-α ([2]; S100b 0.1 mg/ml FAC, TNF-α ELISA at 24 hours): ~70%
- S100b induction of TNF-α, result in words ([2]; S100b 0.1 mg/ml): at least as effective
- reduction in infarct volume / area of infarct compared to sRAGE, in words [3]: significantly greater reduction in infarct volume; also recorded: more efficacious than sRAGE
- binding to immobilized S100b (increase in absorbance at 405 nm) [4]: able to bind; also recorded: specifically interact
- binding to immobilized amyloid-beta (increase in absorbance at 405 nm) [5]: able to bind; also recorded: specifically interact
